Experimental data as given in PMC11790763, “A Peptide Motif Covering Splice Site B in Neuroligin-1 Binds to Aβ and Acts as a Neprilysin Inhibitor” (Molecular Neurobiology, 2024).

How the values were obtained:
recombinant rat NL1 = target: T1, recombinant rat NL1 (Rattus norvegicus, UniProt Q62765); test: Surface plasmon resonance binding to immobilized NL1; conditions: SPR, Biacore 2000, 25 °C, HBS-P pH 7.4 + 3 mM CaCl2; analyte injected over NL1 immobilized on CM4 chip, 20 μl/min; 1:1 Langmuir model; four independent experiments
T1 construct: the extracellular domain of NL1 was immobilized on a sensor chip; purchased R&D systems (Abingdon, UK)
T1 sequence (Q62765 46-697 limits assumed): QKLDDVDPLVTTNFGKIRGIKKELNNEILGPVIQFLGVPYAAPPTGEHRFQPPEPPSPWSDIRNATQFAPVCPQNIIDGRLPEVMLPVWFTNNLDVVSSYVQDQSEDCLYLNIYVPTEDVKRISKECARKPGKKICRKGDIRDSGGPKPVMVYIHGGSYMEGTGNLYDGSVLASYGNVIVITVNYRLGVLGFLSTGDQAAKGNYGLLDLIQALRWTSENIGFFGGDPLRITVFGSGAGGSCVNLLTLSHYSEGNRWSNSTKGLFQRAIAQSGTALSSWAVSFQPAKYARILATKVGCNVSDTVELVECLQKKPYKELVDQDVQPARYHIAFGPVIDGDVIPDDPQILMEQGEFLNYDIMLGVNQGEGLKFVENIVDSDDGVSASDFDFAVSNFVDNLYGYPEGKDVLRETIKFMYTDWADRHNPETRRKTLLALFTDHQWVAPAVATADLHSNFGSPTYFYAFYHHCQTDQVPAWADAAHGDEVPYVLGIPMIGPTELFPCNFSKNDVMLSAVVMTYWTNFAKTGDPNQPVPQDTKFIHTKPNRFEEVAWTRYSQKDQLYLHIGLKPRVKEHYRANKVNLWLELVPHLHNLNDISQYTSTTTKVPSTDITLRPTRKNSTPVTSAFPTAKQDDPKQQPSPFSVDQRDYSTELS
Description: Binding analysis was performed on a Biacore 2000 SPR biosensor (GE Healthcare) at 25 °C using HBS-P (10 mM HEPES, pH 7.4, 150 mM NaCl, 0.005% [v/v] Surfactant P20) supplemented with 3 mM CaCl2 as a running buffer. Approximately 2000 Resonance Units (RU) of NL1 was immobilized on a CM4 sensor chip at a flow rate of 5 μl/min by amine coupling. Binding to serially diluted recombinant NX1β, used as a positive control, was performed as previously described. Aβ1-42 was dissolved in anhydrous DMSO to a stock concentration of 3.21 mM followed by serial dilution in running buffer. Peptide was injected into the chip, and binding experiments were performed at a flow rate of 20 μl/min, followed by regeneration of sensor chip with 10 μl of 15 mM NaOH and 150 mM NaCl. After subtraction of blank control, the binding curves were analyzed based on a nonlinear curve fitting using a 1:1 Langmuir binding model and the software package BIAevaluation 4 (GE Healthcare). The apparent equilibrium constant (KD) was calculated as kd/ka, in which ka and kd are the apparent association and dissociation constants, respectively.

[1] = target: Biotinylated amyloid-β peptide 1-40 (Aβ1-40); test: ELISA; competitive ELISA: NL1 (3.125 nM) coated on the plate; biotinylated Aβ1-40 (400 nM; Aβ40-1 as negative control) premixed 30 min with serially diluted NL1 or NL1-derived peptides; 4 h at room temperature; streptavidin-HRP; IC50 interpreted as KD

Substance	Kd (recombinant rat NL1) [nM]	Kd [1] [nM]
NX1β: recombinant neurexin-1β, positive control for binding to NL1	6.64	–
Recombinant rat neuroligin-1 (NL1), soluble extracellular domain (from UniProt Q62765 46-697) (domain or fragment)	–	19.9
